In patent US10428327B2, “Compositions and methods for enhancing homologous recombination” (LIFE TECHNOLOGIES CORPORATION, priority 2016, dated 2019):

System: EmGFP gene in GRIPTITE HEK293 cells
Experiment: Sequencing analysis of FLAG tag/EcoRI insertion with +5 gRNA
Format: cell-based
Settings: sequential delivery, 48 hours
Method: In order to understand the polarity of dsDNA donor with single stranded overhangs, we inserted a FLAG epitope tag along with an EcoRI site into a separate locus where the +5 gRNA was targeting the bottom strand of EmGFP gene (see Table 21). The Cas9 RNPs were first delivered into […]™ HEK293 cells, followed by the delivery of ssDNA donor, or short dsDNA donors with 32-base single stranded overhangs at either 5′ or 3′ end. Samples in the absence of gRNA served as controls. At 48 hours post transfection, the genomic loci were amplified by PCR. The resulting PCR fragments were subjected to restriction digestion with EcoRI (data not shown) or subjected to sequencing analysis. The integration efficiency of FLAG epitope tag along with an EcoRI was approximately 34% using dsDNA donor with 3′ overhangs and 20% using ssDNA donor.

B1: 32-5′: short dsDNA donor with 32-base 5′ overhangs, EmGFP, SEQ ID 98 and 99 (nucleic acid)
chain 1: GCCCGTGCCCTGGCCCACCCTCGTGACCACCTGACTACAAAGACGATGACGACAAGAATTCTA
chain 2: GTCGGGGTAGCGGGCGAAGCACTGCACGCCGTAGAATTCTTGTCGTCATCGTCTTTGTAGTC
modifications: DNA, backbone and methylation of C not given here; further chemistry not fully specified
Relative % HDR (integration of FLAG epitope tag along with EcoRI): 0.0% | Relative % NHEJ: 78.0% | Relative % wt: 22.0% | Relative % HDR (integration of FLAG epitope tag along with EcoRI) (listed as dsDNA donor with 5′ overhangs): barely detectable integration product
